This note sets out measurements from patent US20250369982A1 (INCENDIATHERAPEUTICS, published 2025).

Where two headings read alike, the source gives them in different places.

Test [1] addresses DDR1 overexpressed on HEK293 cells (Homo sapiens (Human), UniProt Q08345 19-913). Put plainly: cell-based or functional assay.
Test [2] deals with T1, DDR1 on T47D breast cancer cells (human, UniProt Q08345 19-913). Put plainly: cell-based or functional assay.
The target in test [3] is T1, DDR1 on T47D breast cancer cells. Nature of the test: cell-based or functional assay. This is another data set of the same source.
The target of test [4] is T2, mouse DDR1 extracellular domain (mouse, UniProt Q03146 22-415).
T2 construct: extracellular domain
T2 sequence (looked up): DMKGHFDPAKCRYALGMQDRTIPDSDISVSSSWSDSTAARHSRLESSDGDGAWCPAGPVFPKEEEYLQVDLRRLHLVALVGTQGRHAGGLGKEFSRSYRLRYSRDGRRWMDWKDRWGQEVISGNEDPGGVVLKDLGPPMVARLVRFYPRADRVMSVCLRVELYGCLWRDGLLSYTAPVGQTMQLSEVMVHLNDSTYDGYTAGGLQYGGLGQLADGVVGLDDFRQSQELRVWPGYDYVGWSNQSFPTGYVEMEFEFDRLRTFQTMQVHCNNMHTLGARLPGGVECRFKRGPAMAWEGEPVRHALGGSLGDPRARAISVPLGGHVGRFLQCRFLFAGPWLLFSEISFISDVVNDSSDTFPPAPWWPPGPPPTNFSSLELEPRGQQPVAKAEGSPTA
Put plainly: SPR.

In test [5] the target is T1, DDR1 on T47D breast cancer cells. Put plainly: cell-based or functional assay. The source holds these as a separate data set.

T1 sequence (Q08345 19-913 limits assumed, stated change not applied): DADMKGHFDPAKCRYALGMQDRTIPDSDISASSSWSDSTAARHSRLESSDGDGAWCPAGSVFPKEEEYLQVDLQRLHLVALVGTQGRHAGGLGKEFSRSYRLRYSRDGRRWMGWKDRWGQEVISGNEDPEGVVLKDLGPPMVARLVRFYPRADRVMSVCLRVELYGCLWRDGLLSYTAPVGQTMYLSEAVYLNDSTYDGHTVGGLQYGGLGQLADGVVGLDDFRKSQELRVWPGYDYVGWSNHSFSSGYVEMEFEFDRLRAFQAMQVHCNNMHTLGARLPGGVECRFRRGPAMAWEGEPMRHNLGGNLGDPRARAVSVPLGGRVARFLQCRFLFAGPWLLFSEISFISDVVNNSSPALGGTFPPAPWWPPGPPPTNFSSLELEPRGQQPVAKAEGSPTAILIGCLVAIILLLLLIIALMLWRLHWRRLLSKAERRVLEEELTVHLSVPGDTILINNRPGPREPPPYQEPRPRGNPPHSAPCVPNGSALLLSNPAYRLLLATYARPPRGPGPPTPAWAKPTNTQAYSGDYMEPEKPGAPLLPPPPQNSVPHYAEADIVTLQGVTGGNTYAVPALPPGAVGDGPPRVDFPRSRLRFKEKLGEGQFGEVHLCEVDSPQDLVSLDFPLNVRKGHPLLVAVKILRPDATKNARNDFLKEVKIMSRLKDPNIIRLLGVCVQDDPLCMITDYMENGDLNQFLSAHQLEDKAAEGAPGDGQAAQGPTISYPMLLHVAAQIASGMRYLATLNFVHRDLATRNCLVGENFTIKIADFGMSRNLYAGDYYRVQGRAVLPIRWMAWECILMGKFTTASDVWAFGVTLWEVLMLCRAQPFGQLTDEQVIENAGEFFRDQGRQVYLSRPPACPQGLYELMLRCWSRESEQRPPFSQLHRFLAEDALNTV
Chain of DDR1 overexpressed on HEK293 cells (Q08345 19-913 limits assumed): as the sequence (Q08345 19-913 limits assumed, stated change not applied) above

B1: mAb #9H1 WT IgG1 Fc (antibody)
heavy: not shown
light: DIQMTQSPSSVSASVGDRVTITCQASQSIGSVLAWYQQKPGKAPKLLISGVFDLASGVPSRFSGSGSGTDFTLTISSLQPEDFATYYCQYIPYGSSPFGGGTKVEIKRTVAAPSVFIFPPSDEQLKSGTASVVCLLNNFYPREAKVQWKVDNALQSGNSQESVTEQDSKDSTYSLSSTLTLSKADYEKHKVYACEVTHQGLSSPVTKSFNRGEC
notes: also called humanized mAb #9H1 with wt IgG1Fc
In general, Kd refers to the equilibrium constant for the complex coming apart. A high value points to a looser complex. For the molecule B1, the “IC50 for 9H1-WT inhibition of DDR1 OE cell adhesion to collagen I-coated plates” value in test [1] was roughly 0.065 µg/mL. For the same molecule, the “IC50 for inhibiting Collagen I-induced phosphorylation of DDR1 in T47D cells” value in test [2] lay within 0.05 to 0.06 µg/mL. Also, the “IC50, inhibition of human collagen I (50 µg/ml)-induced DDR1 phosphorylation in T47D cells (pDDR1 normalised with vinculin), single experiment; unit taken from the axis [9H1] (µg/ml)” value in test [3] is 0.09 µg/ml; in test [5], 0.05 µg/ml. In addition, the Kd in test [4] came to 17.6 nM.

B2: mAb #9H1 inert IgG1 Fc (antibody)
heavy: QVQLVESGGRVVQPGRSLRLSCTASGFSLNRYYMLWVRQAPGKGLEWIGTISYGDTTYYASWAKGRFTISRDNSKNTLYLQMNSLRAEDTAVYYCARADTGDNGYLGLQLWGQGTLVTVSSASTKGPSVFPLAPSSKSTSGGTAALGCLVKDYFPEPVTVSWNSGALTSGVHTFPAVLQSSGLYSLSSVVTVPSSSLGTQTYICNVNHKPSNTKVDKRVEPKSCDKTHTCPPCPAPEAEGAPSVFLFPPKPKDTLMISRTPEVTCVVVDVSHEDPEVKFNWYVDGVEVHNAKTKPREEQYNSTYRVVSVLTVLHQDWLNGKEYKCKVSNKALPSSIEKTISKAKGQPREPQVYTLPPSREEMTKNQVSLTCLVKGFYPSDIAVEWESNGQPENNYKTTPPVLDSDGSFFLYSKLTVDKSRWQQGNVFSCSVMHEALHNHYTQKSLSLSPGK
light: DIQMTQSPSSVSASVGDRVTITCQASQSIGSVLAWYQQKPGKAPKLLISGVFDLASGVPSRFSGSGSGTDFTLTISSLQPEDFATYYCQYIPYGSSPFGGGTKVEIKRTVAAPSVFIFPPSDEQLKSGTASVVCLLNNFYPREAKVQWKVDNALQSGNSQESVTEQDSKDSTYSLSSTLTLSKADYEKHKVYACEVTHQGLSSPVTKSFNRGEC
notes: No sentence equates the two names; also called humanized mAb #9H1 with inert IgG1Fc; humanized DDR1-9 1 inert IgG1 Fc
With B2, binding in test [4] was put at a Kd of 19 nM.

B3: mAb #33 inert IgG1 Fc (antibody, V domains shown)
VH: QSVEESGGRLVTPGGSLTLTCTVSGFSLSSYDMSWVRQAPGKGLEWIGISWNSGFVDYASWAKGRFSISKTSTTVDLKITSPTTEDTATYFCARLGADDIYYFNLWGPGTLVTISS
VL: ELVMTQTPASVEAAVGGTVTIKCQASETISSRLAWYQQKPGQPPKLLIYQASKLPSGVPSRFKGTGSGTEYTLTISDLECADAATYYCQGCYYGGGSFYDSAFGGGTEVVVKR
notes: also called chimeric rabbit/human mAb #33 with inert IgG1 Fc; chimeric mAb #33
A word on the koff: it is a measure of how fast the partners let go of each other. Read a low koff as a long-lived complex. A word on the kon: it is the second-order rate constant of association. With B3, in test [4], the Kd was found to be 1.01 nM, the koff was 0.00106 s⁻¹ and the association rate constant (kon) was 1.05e+06 M⁻¹ s⁻¹.
